These results are taken from the supplement of paper PMC10126150.

± gives the standard deviation of the averaged measurements.

The test system of the data set is ATP. Nature of the data set: switch fluorescence ratio, 500 uM ATP over buffer (Cy3 cluster intensity, sum of 5 cycles each) (fold (ratio)); higher = stronger signal-on switching upon ATP binding; sequences stand for … in TCGTCGGCAGCGTCAGATGTGTATAAGAGACAGTTTTTTTTTTTTTTTTTTTTTTTTT…TC. The conditions noted are these: aptamer strand: ATP DNA aptamer (quencher-CACCTGGGGGAGTATTGCGGAGGAAGG + anchor), 100 nM annealed; ATP concentration: 500 uM. An outline of the steps: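 Values give the fluorescence ratio for each switch-domain sequence, averaged from per-cluster ratios of summed target-cycle to summed buffer-cycle Cy3 intensity. The Cy3-labelled switching-strand clusters sat on a modified Illumina MiSeq flow-cell, were annealed to 100 nM quencher-labelled ATP aptamer, and were imaged in selection buffer, then after 15 min with 500 uM ATP at 22 °C. Five cycles ran with NaOH stripping and re-annealing between them, and clusters outside 100-1000 RFU were excluded.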
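Further: ATP exposure 15 min at 22 °C before imaging.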

Regarding TTTTTGACCT, the switch fluorescence ratio amounted to 1.38 ± 0.24. TTTTTGATAG: the switch fluorescence ratio is 0.9847 ± 0.0057. For the sequence TTTTTGATGG, the switch fluorescence ratio was 1.02 ± 0.037.

With TTTTTGCAGT, the switch fluorescence ratio came to 1.02 ± 0.082. Take TTTTTGCATC: the switch fluorescence ratio was determined as 1.2 ± 0.27. As for TTTTTGCATG, the figure is 1.03 ± 0.047; as for TTTTTGCCAC, 1 ± 0.043; as for TTTTTGCGCG, 0.9974 ± 0.0065. With TTTTTGCGTT, the switch fluorescence ratio amounted to 0.976 ± 0.037. As for TTTTTGGACA, the switch fluorescence ratio stood at 0.993 ± 0.019. Consider TTTTTGGATG, for which the switch fluorescence ratio stood at 1.02 ± 0.057. Turning to TTTTTGGCCT, the switch fluorescence ratio came to 1.05 ± 0.052. Turning to TTTTTGGCTT, the switch fluorescence ratio was 1.02 ± 0.093. For TTTTTGGGGA, the switch fluorescence ratio is 1 ± 0.025. As for TTTTTGGTCC, the figure is 0.992 ± 0.011; as for TTTTTGTAGG, 0.995 ± 0.016. On to TTTTTGTGAA, for which the switch fluorescence ratio is 0.995 ± 0.033. In the case of TTTTTGTGAG, the switch fluorescence ratio turned out to be 1.01 ± 0.039. As to TTTTTGTTTA, the switch fluorescence ratio amounted to 0.971 ± 0.038. In the case of TTTTTTAACA, the switch fluorescence ratio worked out at 1.01 ± 0.027. For the sequence TTTTTTAATC, the switch fluorescence ratio came to 1.02 ± 0.03. Take TTTTTTACAT: the switch fluorescence ratio was found to be 1.01 ± 0.018.

Regarding TTTTTTACTC, the switch fluorescence ratio worked out at 1 ± 0.039. Take TTTTTTAGAT: the switch fluorescence ratio came out at 0.985 ± 0.022. TTTTTTAGGC: the switch fluorescence ratio is 0.962 ± 0.041.

Take TTTTTTATAC: the switch fluorescence ratio is 1.02 ± 0.051. Regarding TTTTTTATCC, the switch fluorescence ratio was found to be 1.03 ± 0.089. With TTTTTTCCCT, the switch fluorescence ratio was determined as 1.08 ± 0.12. Consider TTTTTTCCG, for which the switch fluorescence ratio was determined as 1.08 ± 0.1. TTTTTTCGGA: the switch fluorescence ratio came to 1.01 ± 0.073. Consider TTTTTTCT, for which the switch fluorescence ratio worked out at 0.987 ± 0.02. Turning to TTTTTTCTAA, the switch fluorescence ratio was found to be 0.973 ± 0.015. In the case of TTTTTTGAAG, the switch fluorescence ratio is 0.997 ± 0.03. Next, TTTTTTGAGC: 0.996 ± 0.031; TTTTTTGATC: 0.999 ± 0.034; TTTTTTGCAT: 1.07 ± 0.19.

Turning to TTTTTTGCCT, the switch fluorescence ratio was 1.01 ± 0.038.

As to TTTTTTGCGG, the switch fluorescence ratio is 1.08 ± 0.22. With TTTTTTGGAA, the switch fluorescence ratio amounted to 1.1 ± 0.16. As for TTTTTTGGAG, the figure is 1.01 ± 0.023. Next, TTTTTTGGCC: 0.993 ± 0.036; TTTTTTGGT: 0.986 ± 0.016; TTTTTTGTCA: 1.02 ± 0.042. Take TTTTTTTAA: the switch fluorescence ratio was found to be 0.991 ± 0.026. In the case of TTTTTTTAAA, the switch fluorescence ratio is 0.999 ± 0.027.

TTTTTTTCCG: the switch fluorescence ratio came out at 1.012 ± 0.0081.

For the sequence TTTTTTTCGA, the switch fluorescence ratio was 1.01 ± 0.022. With TTTTTTTCGG, the switch fluorescence ratio came out at 1 ± 0.027. For TTTTTTTGC, the switch fluorescence ratio worked out at 1 ± 0.02. TTTTTTTGCG: the switch fluorescence ratio amounted to 1.02 ± 0.069. As to TTTTTTTTAA, the switch fluorescence ratio is 1.01 ± 0.045. Regarding TTTTTTTTCC, the switch fluorescence ratio is 1.15 ± 0.4.
